3 molecules from patent publication US6576607B1, “Methods using CNS neurite outgrowth modulators” (Acorda Therapeutics, priority 1995, dated 2003) can be followed below.

The test system of experiment [1] is dopaminergic neurons. Put plainly: Protection of dopaminergic neurons from MPP+ neurotoxicity. Type of experiment: cell-based, rat. The note with it: forskolin combined with PDE-IV inhibitor NQ-A. The method, then: (§1) Cell culture, dopamine uptake and treatment with MPP+have been described (Hartikka et al., 1992). Primary cultures containing dopaminergic neurons were prepared from the ventral mesencephalon of 14-day-old fetal rats and plated in 24 well plates. A culture well usually contained 6×10^5 cells/well, of which 3-5% were dopaminergic. Duplicate cultures were prepared for dopamine uptake or tyrosine hydroxylase staining. Dopamine uptake was measured using tritiated dopamine at concentrations of 50 nM (sp, act. 45 Ci/mmol, New England Nuclear). The survival of dopaminergic neurons in the culture was assayed by counting tyrosine hydroxylase (TH) immunopositive neurons, stained with a monoclonal antibody to TH (Boehringer Mannheim).
(§2) The monoclonal L1 antibodies 327 and 557.B6 (referred to as 557) were added to the culture medium on the day of plating at concentrations of 7.5-120 μg/ml and left for 3 days. In addition to treatment of the culture medium with antibodies, they were also substrate coated prior to plating of the cells, as described (Appel et al., 1993). In experiments with MPP^+ (active metabolite of methyl-phenyl-tetrahydropyridine, MPTP), antibodies or cAMP-elevating agents were added to the culture medium of 5-day-old cultures, followed by 1 μM MPP^+ on day 6 and cells were fixed on day 8 for immunocytochemistry. […]

Experiment [2] deals with dopaminergic neurons. Nature of the experiment: [3H]dopamine uptake in primary cultures of embryonic ventral mesencephalon. The note with it: 0.5 μM, 3 days. Type of experiment: cell-based, rat. The method, then: as §1, §2
Another experiment relates to injured rat spinal cord. Nature of the experiment: Rat spinal cord contusion injury (NYU impactor), intrathecal infusion. The note with it: 15 μg/ml intrathecally, 6 rats without CyA; unpublished experiments. Type of experiment: in vivo. The procedure: The NYU Impactor and rat contusion models of spinal cord injury have been extensively described. [Kwo S, Young W, DeCrescito V (1989) Journal of Neurotrauma 6:13-24; Huang P, Young W (1994). Journal of Neurotrauma 11: 547-62; Basso M, Beattie M, Bresnahan J, Anderson DK, Faden A, et al. (1996) Journal of Neurotrauma in press; Constantini S, Young W (1994) Journal of Neurosurgery 80: 97-111]. Rats were anesthetized with an intraperitoneal dose of pentobarbital (40 mg/kg female, 60 mg/kg male), suspended with clamps placed on the T8 and T11 dorsal processes, and injured at one hour after induction of anesthesia. The impactor drops a 10 g rod a distance of 12.5, 25.0, or 50.0 mm onto the dorsal surface of T9-10 spinal cord, exposed by laminectomy. Two digital optical potentiometers measured the trajectory of the falling rod and vertebral movement with a precision of ±20 μm and ±20 μsec. Cord compression rate (Cr) was calculated from the distance of cord compression divided by time required for compression. […]
The rats received daily Keflin® (15 mg/kg b.i.d. subcutaneous) for one week after injury and then Baytril® (5 mg/kg b.i.d. subcutaneous) for 10 days for recurrent urinary tract infections. […] The rats were assessed weekly for locomotor recovery, using the Basso-Beattie-Bresnahan (BBB) scale developed at Ohio State University. […]

Another experiment concerns cerebellar granule cells. The note with it: 5 days in culture.
Experiment [3] concerns hippocampal neurons. Put plainly: Cell survival assay (MTT), embryonic hippocampal neurons. The note with it: 5 days in culture. Format: cell-based, rat. The method, then:
(§3) Hippocampal neurons were prepared from 18-day rat embryos as described (Lochter, A., et al (1991); Brewer, G. J., et al (1993)). Neurons were re-suspended and plated in serum-free Dulbecco's modified Eagle's medium/Nutrient Mix F12 (Life Technologies, Inc.) supplemented with N2 components, 33 mM D-glucose, 1 mM pyruvate, 1 mg/ml BSA, and 5 mM Hepes.

Experiment [4] deals with hippocampal neurons. Put plainly: Neurite outgrowth assay, hippocampal neurons. Type of experiment: cell-based, rat. To be noted: hippocampal neurons from 18-day embryos. The method, then:
The tissue culture wells and glass cover slips (1.1 cm diameter) were incubated overnight at 4° C. with 0.01% poly-L-lysine (PLL) and washed three times with distilled water. L1-Fc or CHL1-Fc diluted in Ca/Mg-free Hank's Balanced Salt Solution were applied overnight at 4° C., at the concentrations indicated in the text. The wells and coverslips were washed twice with Hank's and once with seeding medium just before plating cells.
as §3
Cerebellar granule cells and hippocampal neurons were seeded into pro-treated 96-well tissue culture plates at a density of 1×10^4 cells or 5×10^3 cells per well, respectively, in 100 μl medium. Soluble fusion proteins were added, when used, 2 hours after seeding the cells, to avoid effects on initial adhesion. […] The lengths of individual neurite were analyzed and quantified with an IBAS image analysis system (Kontron). […] For each cell measured, the total length of all neurites was determined. In each experiment, 50 cells in each of three wells were analyzed. […]

For `COC(=O)c1cccc(-n2c(=O)n(Cc3ccccc3)c(=O)c3ccccc32)c1` [NQ-A, 1-(3-carbomethoxyphenyl)-3-benzyl-quinazoline-2,4-dione], the “protection from MPP+ toxicity” value in the experiment with dopaminergic neurons [1] was “effectively protects against MPP^+ toxicity”. Further, the dopamine uptake result in the experiment on dopaminergic neurons [2] is “slight elevation of dopamine uptake”.

B1: NgCAM: immunogenic chick NgCAM given intrathecally (protein, UniProt Q03696 21-1266, looked up)
Neuronal-glial cell adhesion …: ITIPPEYGAHDFLQPPELTEEPPEQLVVFPSDDIVLKCVATGNPPVQYRWSREDQPFVPEEHGGVSVVPGSGTLVINATLAARLQGRFRCFATNALGTAVSPEANVIAENTPQWPKEKVTPVEVEEGDPVVLPCDPPESAVPPKIYWLNSDIVHIAQDERVSMGQDGNLYFSNAMVGDSHPDYICHAHFLGPRTIIQKEPLDLRVAPSNAVRSRRPRLLLPRDPQTTTIALRGGSVVLECIAEGLPTPWVRWRRLNGPLLPGGVGNFNKTLRLWGVTESDDGEYECVAENGRGTARGTHSVTVEAAPYWVRRPQSGVFGPGETARLDCEVGGKPRPQIQWSINGVPIEAAGAERRWLRGGALVLPELRPNDSAVLQCEARNRHGPLLANAFLHVVELPLRMLTADEQRYEVVENQTVFLHCRTFGAPAPNVEWLTPTLEPALQDDRSFVFTNGSLRVSAVRGGDGGVYTCMAQNAHSNGSLTALLEVRAPTRISAPPRSATAKKGETVTFHCGATFDPAVTPGELRWLRGGQPLPDDPRYSVAAEMTVSNVDYGDEGTIQCRASTPLDSAEAEAQLRVVGRPPSRDLQVMEVDEHRVRLSWTPGDDHNSPIEKFVVEEEEEREDLQRGFGAADVPGQPWTPPLPLSPYGRFPFRVVAVNAYGRGEHHAPSAPIETPPAAPERNPGGVHGEGNETGNLVITWEPLPPQAWNAPWARYRVQWRPLEEPGGGGPSGGFPWAESTVDAPPVVVGGLPPFSPFQIRVQAVNGAGKGPEATPGVGHSGEDLPLVYPENVGVELLNSSTVRVRWTLGGGPKELRGRLRGFRVLYWRLGWVGERSRRQAPPDPPQIPQSPAEDPPPFPPVALTVGGDARGALLGGLRPWSRYQLRVLVFNGRGDGPPSEPIAFETPEGVPGPPEELRVERLDDTALSVVERRTFKRSITGYVLRYQQVEPGSALPGGSVLRDPQCDLRGLNARSRYRLALPSTPRERPALQTVGSTKPEPPSPLWSRFGVGGRGGFHGAAVEFGAAQEDDVEFEVQFMNKSTDEPWRTSGRANSSLRRYRLEGLRPGTAYRVQFVGRNRSGENVAFWESEVQTNGTVVPQPGGGVCTKGWFIGFVSSVVLLLLILLILCFIKRSKGGKYSVKDKEDTQVDSEARPMKDETFGEYRSLESEAEKGSASGSGAGSGVGSPGRGPCAAGSEDSLAGYGGSGDVQFNEDGSFIGQYRGPGAGPGSSGPASPCAGPPLD
Consider B1, for which the “locomotor recovery and corticospinal tract regeneration” value in the experiment on injured rat spinal cord was “did not result in locomotor recovery or evidence of regenerating corticospinal tracts”.

B2: CHL1-Fc: extracellular domain of mouse CHL1 fused to the Fc portion of human immunoglobulin IgG1 (protein)
chain: EIPLSVQQVPTIVKQSYVQVAFPFDEYFQIECEAKGNPEPIFSWTKDDKPFDLSDPRIIAANNSGTFKIPNEGHISHFQGKYRCFASNRLGTAVSEEIEFIVPGVPKFPKEKIEPIDVEEGDSIVLPCNPPKGLPPLHIYWMNIELEHIEQDERVYMSQRGDLYFANVEENDSRNDYCCFAAFPKLRTIVQKMPMKLTVNSSNSIKQRKPKLLLPPAQMGSLSAKTVLKGDTLLLECFAEGLPTPHIQWSKPGSELPEGRATIEVHEKTLKIENISYQDRGNYRCTANNLLGKASHDFHVTVEEPPRWKKKPQSAVYSTGSSGILLCEAEGEPQPTIKWRLNGLPIEKHPFPGDFMFPREISFTNLLFNHTGVYQCEASNIHGTILANANIDVIDVIPLIKTKNEENYATVVGYSAFLHCEYFASPKATVVWEVADETHPLEGDRYHTHENGTLEIYRTTEEDAGSYSCWVDNAMGKAVITANLDIRNATKLRVSPKNPRIPKSHVLELYCESQCDSHLKHSLKLSWSKDGEAFEMNGTEDGRIVIDGAYLTISNITAEDQGVYSCSAQTSLDSTSEKTQVTVLGVPDPPETFTCQKDKNRSVRLLREAGDDHNSKSASTIVEFEGNREEPGKWEELTRVQGEETDVVLSLAPYVRYQFRVTAVNEVGRSHASLPSDHHETPPAAPDKNPQNIRVQASQPKEMIIKWEPLKSMEQNGPGLEYKVSWKPQGAPEEWEEEIVTNHTLRVMTPTVYAPYDVKVQAINQLGSSPDPQPVTLYSGEDYPSTAPVIQRVDVMNSTLVKVTWSSIPKETVHGLLRGYQINWWKTKSLLDGRTHPKEVNILRFSGQRNSGMVPSLDPFSEFHLTVLAYNSKGAGPESEPYIFQTPEGVPEQPSFLKVIKVDKDTATLSWGLPKKLNGNLTGYLLQYQIINDTYELGELNEINVTTPSKSSWHLSNLNSTTKYKFYLRACTSRGCGKPISEEGATLGEGSKGIRKITEGVNVTQKIHPVEVLVPGAEHIVHLMTKNWGDNDSIFQDVIETRGREYAGLYDDISTQGW
modifications: left off: a dimerising Fc or GST
notes: extracellular domain of mouse CHL1 fused to the Fc portion of human immunoglobulin IgG1
For the molecule B2, the “morphological features of cultures” value in the experiment with cerebellar granule cells is “denser, generally healthier-looking cultures”. Also, in the experiment with hippocampal neurons [3], the “concentration of maximal effect on survival” value was found to be 1 µg/mL and the survival result is “enhanced survival”. The neurite outgrowth entry in the experiment with hippocampal neurons [4] was “a stimulation was observed”.
